Results: the RNAGym collection of RNA variant scans (doi:10.1073/pnas.2313332121)
This sample holds only a part of the variants without activity.

B1: TPR 5TU (parent)
chain: GGAUCUUCUCGAUCUAACAAAAAAGACAAAUCUGCCACAAAGCUUGAGAGCAUCUUCGGAUGCAGAGGCGGCAGCCUUCGGUGGCGCGAUAGCGCCAACGUUCUCAACUAUGACACGCAAAACGCGUGCUCCGUUGAAUGGAGUUUAUCAUG

Variants of: B1
Experiment: polymerase ribozyme fitness, log enrichment relative to wild type (log ratio); higher = more active; in vitro selection for triplet polymerase activity
Summary of the method: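 Input and output libraries were sequenced on Illumina after a single in vitro selection round, run in triplicate on PCR-built, transcribed mutant libraries of each subunit of a heterodimeric triplet polymerase ribozyme. Selection annealed libraries to a biotinylated primer, the partner subunit and triplets, incubated them frozen at −7 °C, then gel-excised extended constructs for streptavidin-bead capture and RT-PCR. Genotypes with ≥10 input reads and ≥1 read per output were kept. Fitness is the logarithm, taken in base 2, of genotype enrichment divided by wild-type enrichment, using inverse-variance-weighted replicate averages.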

Variant | polymerase ribozyme fitness (log ratio)
A29U G46U G59A G70A A89U G117U U148A | ≤ -4.2
A29G A37U G94C G141U | ≤ -4.2
A30C G62U U90G C95A G124A A138C U151C | ≤ -4.2
A30G C32G U56A C57G G86U A142G | ≤ -4.2
A29U U55G C57U G67C A98G | ≤ -4.2
A29C G50U G81A C95A G133U | ≤ -4.2
A30U C32U G48A C51U U56G C76U | ≤ -4.2
A30C G65A G67C G100A A119U | ≤ -4.2
A29G G58C A60C G71A C129G | ≤ -4.2
A29U U45A G70A C85G | ≤ -4.2
A29U G50U C116U A147U | -4.04
A29G C93A A122G G124A | ≤ -4.2
A29U C35G C95G | -4.03
A30G C54A C85G A120U C125U G136A | ≤ -4.2
A30C C85U | -4.09
A29U C76G G84U C96A A122U U144A | ≤ -4.2
A30G U53A G62U A64G | ≤ -4.2
A29U A73G C93A G128U G140U | ≤ -4.2
A30C C35U C54U C85U A121U | ≤ -4.2
A30U C38A C75G C85U G141C | ≤ -4.2
A30G C54U G80U A91C C103U | ≤ -4.2

Variant | polymerase ribozyme fitness (log ratio)
A30G G74U C95A U148G | ≤ -4.2
A29G U33C G141A U145A | ≤ -4.2
A30U G42A C85U A89G C99A A107C A122U C125A U144C C149A | ≤ -4.2
A30G A47U G50C G80C C96U C103U | ≤ -4.2
A29C C54A G70U | ≤ -4.2
A30G G48A G80U G88U U109C | ≤ -4.2
A30G A41U U135A A137U | ≤ -4.2
A29U C51A G94A | ≤ -4.2
A29U A66U C79A G83A C96A A142U | ≤ -4.2
A30G C76U | -3.9
A30C G84A A115C C149U | ≤ -4.2
A29U G86A A97G A142U G143A | ≤ -4.2
A29U U44C U45A C57A A64G C76A C95A A150C | ≤ -4.2
A29U U77A G80A G92A U148C | ≤ -4.2
A30U A122U | -2.62
A29U G70U | ≤ -4.2
A30G U77C G84C G86U U102A C118U | ≤ -4.2
A30U C69U G83A | ≤ -4.2
A30G G46A A107U | -4.03
A29U A66U C96U | ≤ -4.2
A29U A41C U61A G67U G86U G92A C93A G133C | ≤ -4.2

Variant | polymerase ribozyme fitness (log ratio)
A29U G48U U61G G83C | ≤ -4.2
A30C G68A C87U A106U A120G | ≤ -4.2
A30C U33C G67A C93G A119U | -3.89
A29U G86A C87U C105A C116A U146A | ≤ -4.2
A29G C57A G58U C95U C125G | ≤ -4.2
A30U C54U A73G C95A C116U | -4.03
A30C G48C G50U A98G A107G C118U A120C G141U | ≤ -4.2
A30C G48C G67A A91U G100U | ≤ -4.2
A30U C76A | -3.82
A29U U31G A47C U61A G81A C95U G100U | ≤ -4.2
A29U A30C A49G C57U C87A G100A G141A | ≤ -4.2
A29U C96U A106C U127G | ≤ -4.2
A29C C87G G117A | ≤ -4.2
A29C C96G | -4.15
A30C C93U A106U C131A A142C | -4.12
A29G A60C G80A A121U G141U | ≤ -4.2
A30G G48U C76G C96U A97C U134G | ≤ -4.2
A30U G71C C95A | ≤ -4.2
A30G G58U C118U | -3.95
A30C C57G C63U G65U C96U A97U | ≤ -4.2
A29G U55G C57G C87A A107G | ≤ -4.2

Variant | polymerase ribozyme fitness (log ratio)
A29G C105G U146G | ≤ -4.2
A30C C43U A49C C85G C108G | ≤ -4.2
A30U C54G C95A A98U A122C G141C U144C | ≤ -4.2
A29G G70A A120U G143A A150C | ≤ -4.2
A29G A47U A49U G94A C131U | ≤ -4.2
A30U A39G A98G C99U C105G | ≤ -4.2
A29U C87U A122U U145C | -3.85
A29G U31A C96U C114U G140C | ≤ -4.2
A29U C99A | -4.17
A30C G48C A60G | ≤ -4.2
A29U U55A A60G G86A U130C | ≤ -4.2
A30G G42U A52C C57A C96A A120G | ≤ -4.2
A29U A49C C63U C116U G133C U139A U146A | ≤ -4.2
A29U A39U U55A C79A C93G | ≤ -4.2
A30C C95U | -4.11
A29C G58A C87G C93G G133A U145C | ≤ -4.2
A29G C131U | ≤ -4.2
A30U A37C G50C A91G A150G | ≤ -4.2
A29U A142G C149U | ≤ -4.2
A30U A91U | ≤ -4.2
A29U C63U C114U | ≤ -4.2
